Article PMC5491343 (SLAS discovery, 2016)
Square brackets hold non-standard residues; d marks the D form. Ends that are not written are not given here. Peptide text beside a SMILES is read from it. * marks the point of attachment. X1 = CN(C)c1ccc2c(-c3ccc(C(=O)NCCCCCN4C(=O)CC(*)C4=O)cc3C(=O)[O-])c3ccc(=[N+](C)C)cc-3oc2c1; pY = N[C@@H](Cc1ccc(OP(=O)(O)O)cc1)C(=O)O

Key:
[1] = target: 2pY ITAM peptide ITAM (Homo sapiens) (UniProt P20963); details: cited from earlier work
[2] = target: T1, ZAP-70 (Homo sapiens, UniProt P43403); assay: TR-FRET ZAP-70:2pY binding / inhibition assay; details: read-out: KD, ZAP-70 binding to AlexaFluor488-2pY
T1 sequence (P43403 1-606): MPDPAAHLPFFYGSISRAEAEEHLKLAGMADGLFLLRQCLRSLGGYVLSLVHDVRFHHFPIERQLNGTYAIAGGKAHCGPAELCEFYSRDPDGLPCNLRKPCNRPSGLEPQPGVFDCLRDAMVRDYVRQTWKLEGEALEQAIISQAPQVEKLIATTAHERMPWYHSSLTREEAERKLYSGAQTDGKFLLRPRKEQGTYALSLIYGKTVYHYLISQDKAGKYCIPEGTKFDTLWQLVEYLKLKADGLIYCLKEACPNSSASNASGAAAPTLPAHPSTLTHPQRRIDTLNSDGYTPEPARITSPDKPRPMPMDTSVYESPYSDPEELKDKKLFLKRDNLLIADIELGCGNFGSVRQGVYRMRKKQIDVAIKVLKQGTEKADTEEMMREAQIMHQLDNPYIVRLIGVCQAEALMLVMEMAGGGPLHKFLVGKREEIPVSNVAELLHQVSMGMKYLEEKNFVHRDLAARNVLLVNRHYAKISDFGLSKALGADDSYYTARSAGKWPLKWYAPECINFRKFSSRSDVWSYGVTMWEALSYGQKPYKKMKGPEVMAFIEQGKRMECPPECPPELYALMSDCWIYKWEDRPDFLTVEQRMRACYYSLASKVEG

[3] = target: T2, isolated tandem SH2 domains of ZAP-70 (Homo sapiens, UniProt P43403); assay: Fluorescence polarization assay with the isolated tandem SH2 unit; format: binding; details: data not shown
T2 sequence (P43403 1-259 limits assumed): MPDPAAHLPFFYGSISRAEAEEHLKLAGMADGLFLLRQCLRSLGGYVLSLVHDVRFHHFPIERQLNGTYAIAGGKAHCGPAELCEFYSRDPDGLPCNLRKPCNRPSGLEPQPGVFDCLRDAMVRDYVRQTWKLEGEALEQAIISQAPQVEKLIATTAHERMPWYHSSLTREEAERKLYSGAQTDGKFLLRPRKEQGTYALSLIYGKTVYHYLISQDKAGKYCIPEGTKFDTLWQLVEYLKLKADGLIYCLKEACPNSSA

[4] = target: ZAP-Src chimera; assay: Fluorescence polarization 2pY binding to ZAP-Src chimera; details: read-out: binding constant for 2pY peptide and the ZAP-Src chimera; FP, TAMRA-2pY
[5] = target: T3, ZAP-70 (zeta-associated protein of 70 kDa), construct spanning residues 1-606, wild type (UniProt P43403 1-606); assay: fluorescence polarisation
T3 sequence (looked up): T1 sequence (P43403 1-606)

[6] = target: T4, ZAP-70 Y315F/Y319F (UniProt P43403 1-619, Y315F | Y319F); assay: fluorescence polarisation
T4 sequence (looked up): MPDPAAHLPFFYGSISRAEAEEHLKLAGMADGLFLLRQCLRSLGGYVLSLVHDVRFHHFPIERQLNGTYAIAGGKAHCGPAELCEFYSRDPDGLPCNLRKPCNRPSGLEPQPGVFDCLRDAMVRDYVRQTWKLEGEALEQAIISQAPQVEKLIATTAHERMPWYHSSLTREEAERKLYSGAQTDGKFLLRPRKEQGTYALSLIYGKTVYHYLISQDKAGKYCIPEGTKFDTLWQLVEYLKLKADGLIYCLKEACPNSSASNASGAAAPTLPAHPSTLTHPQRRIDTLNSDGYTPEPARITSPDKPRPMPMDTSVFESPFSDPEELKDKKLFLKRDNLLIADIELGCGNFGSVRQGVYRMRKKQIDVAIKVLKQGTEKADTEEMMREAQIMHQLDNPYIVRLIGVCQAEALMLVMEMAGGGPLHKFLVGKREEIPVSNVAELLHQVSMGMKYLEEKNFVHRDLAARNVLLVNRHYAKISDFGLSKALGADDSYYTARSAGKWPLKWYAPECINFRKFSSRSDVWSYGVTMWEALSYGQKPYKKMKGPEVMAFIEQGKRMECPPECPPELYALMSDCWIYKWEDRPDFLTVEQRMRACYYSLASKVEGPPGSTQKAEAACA

## ZAP-70 (from UniProt P43403)
[1]
  Kd: 0.0766 µM

## 2pY: fluorescently labeled doubly phosphorylated ITAM peptide of the ζ chain (CGNQLpYNELNLGRREEpYDVLD) (C(TAMRA C5 maleimide)GNQL[pY]NELNLGRREE[pY]DVLD)
[2]
  Kd: 0.0554 ± 0.0071 µM
[3]
  dissociation constant, tandem SH2 unit and 2pY peptide: nearly identical to the Src-ZAP fusion protein

## CC(C)C[C@H](NC(=O)[C@H](CC(N)=O)NC(=O)[C@H](CC(C)C)NC(=O)[C@H](CCC(=O)O)NC(=O)[C@H](CC(N)=O)NC(=O)[C@H](Cc1ccc(OP(=O)(O)O)cc1)NC(=O)[C@H](CC(C)C)NC(=O)[C@H](CCC(N)=O)NC(=O)[C@H](CC(N)=O)NC(=O)CNC(=O)[C@@H](N)CSC1CC(=O)N(CCCCCNC(=O)c2ccc(-c3c4ccc(=[N+](C)C)cc-4oc4cc(N(C)C)ccc34)c(C(=O)[O-])c2)C1=O)C(=O)NCC(=O)N[C@@H](CCCNC(=N)N)C(=O)N[C@@H](CCCNC(=N)N)C(=O)N[C@@H](CCC(=O)O)C(=O)N[C@@H](CCC(=O)O)C(=O)N[C@@H](Cc1ccc(OP(=O)(O)O)cc1)C(=O)N[C@@H](CC(=O)O)C(=O)N[C@H](C(=O)N[C@@H](CC(C)C)C(=O)N[C@@H](CC(=O)O)C(=O)O)C(C)C (stereo partly drawn) [TAMRA-2pY] (H-C(X1)GNQL[pY]NELNLGRREE[pY]DVLD-OH; N-terminus and C-terminus assumed)
[4]
  Kd: 0.0158 ± 0.0013 µM

B1: TAMRA-labeled ITAM 2pY peptide (CGNQLpYNELNLGRREEpYDVLD), from the first ITAM of the T-cell receptor zeta chain (peptide)
peptide: C(TAMRA C5 maleimide)GNQL[pY]NELNLGRREE[pY]DVLD
[5]
  Kd: 0.0457 ± 0.0047 µM
[6]
  Kd: 0.0822 ± 0.0056 µM
